Protease stability score data for 47 sequences are collected here from the NTF2 design screens of Basanta et al. (2020).

This data set in a line: protease stability score; higher = more stable; yeast display proteolysis, trypsin and chymotrypsin.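 Also: relative to predicted unfolded state with 0 unfolded-like and 1 meaning tenfold more protease.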
Take “LEFEEHLHRWVNFYLNVHRTGDEEHIEKLADPDMRIEVGDKELHGRERAYEFWRRYLEEARLHDMKIRSVELVGDKIILDTEIHSIVGDKHIRERLEIILTKINGRWMLKSMRVQ”: the protease stability score stood at 1.45.

As to “LESEEDLREAIRILIEDLRTGDEDSLHNLLDPNVRIDVNGVKLHGMEWVSHTIRHLGVKHTYVINRRIKIQGNKVDIDGEFNLRYDGKEERRRITLHVQKIDGVWVIEEITIR”, the protease stability score was 0.971.

Consider “NDDQKELEHIMKLLSRALETGDEEKLRELFDPHTRIHINGVTRIGWEHMKHHFEDLGLSNFHFHLRVRHFDVQGDKARVEGELVVNFNGKETSHDVEWRLEKVNGRWIVKSIIVG”, for which the protease stability score came to 2.27.

“NDEEQVAHKFFEKLMHALLTGDEERLKELHDPDVRVDYGNFKLVGREKMVEFWHRFLEEIRLRNTHIETYHIFDGRLEIHSRIHIEVDGKIRIMEVYLEVRKIDGKWRLTHVEFR”: the protease stability score turned out to be 1.68.

In turn, “NDIEQIVREVLELIYHAIATGDWEHIYKNADPNVKYEQGDKEFHGREILSEMIVHIRLRDLELNRLHIVGDKVHIHGHFHMDINGRERLVKTEYIIRKVDGQWRLESLIIR” registered a protease stability score of 1.23.

Consider “NDLEERTKKAAEELREMHKTGDEELWLKNMDPNVRLEIIIGDKLLIFHGREKWREWFHKYKNARHEDNDEHVQGDKTRINVHIVFNGRRVDVEITLRVIDGRVHSEHINII”, for which the protease stability score turned out to be 1.45.

“NDLERDAEHMLKLLIEAHLTGNEDIFEEFMDPNTRLVVGDKDNHGREFAEDYFKEWRVKHVRLKHYRSIGNYVEFDTETNVHVNGRDIRTETKITIVKIDGRWLLKVLIFG” had a protease stability score of 1.72.

“NEDDHIMEELTRIFIQNLRTGNEEEWAKYADPDTRLDFNGVDIIGRESILHWLKHMLTELRFTKIIFHHINAVNGRIHLDVEQHVEVGDKSQTIRSEIHIRVVNGVIKREYYRYK” returned a protease stability score of 0.092.

Sequence “NEDDKHAKHLLDLLIRTFITGDEHTLMNLLDPHTRYHQGEKELHGMEMLLHVERHHGATVHHFHVKSVRVIGDKIQFHVHVDHTIDGKRIRTDIDLWMEKVDGRWIVREIRIH” showed a protease stability score of 0.815.

“NEDEDKMKEWIETLHKSLETGDEKTLSKLFDPRVQYDIGDKKYHGWRHYLELILRIDHERREIHHVEVVNGRVEIDVRVHIHINGQDYEKKTILHVEKIDGKWLNKKVQIV” registered a protease stability score of 1.16.

“NEDEDWLRKVLHLLLHAAETGDEEILLHLLDPNARFIQGDKFKVGMDILETWIRKIKNLRIHDFELKDMRVYNGRIEVDGHLDRIINGQRERTDIILFLLKVDGRWYFEEIRIS” registered a protease stability score of 2.09.

In turn, “NEDEEAHHKLIKEYSRLVDTGDWRSLRRYLDPDYRLRVDGVDIVGRDELHRILEQMLDRVDHLHLNIERHRIQGDFLISDVKHHYEFNGKHVERKVIIYIWKFDGRWIMRYTEVL” displayed a protease stability score of 1.02.

“NEDEEEARRWLEFFIKLYETGDEHMLEKMIDPDTRSYIDGKEFVGREEIRKLLRHLRIEHIHVKRFRAVNGKIDFDTHIVGEFNGRRKNTDVHIRATKIDGQWYLHEVDWK” gave a protease stability score of 1.64.

Turning to “NEDEEHFKKWFEKYLRSLRTGDEENTRKLFDPHVRIEFENHELHGWENAVRFFRELHHRADVIHLELHDYTIVGDYVYIDVIVHLIYNGREFRHDVKIDASKIDGQWRIESLSIK”, the protease stability score came out at 1.64.

On to “NEDEEIVRERFEEFLDMMFTGDWTSLEKLLDPHYRLDIGDKHHHGREEFIEFVRKIKNLRIDIKRVSVIVIDGRAINHVDGVLHFNGKTEKVHIIVVAKKIDGRWIVERVTIETH”, for which the protease stability score was 2.08.

“NEDEEIWRKAHEFMIHAMKTGDEDVEKSLFDPHTRFEQGDKELHGREMIEHLLRLLRERFPNVQIRRMEIQHWDHFNGVLIEFGELRVDVNGRTVSLRIIIYAEKINGQWHVKRVEFD” registered a protease stability score of 1.52.

“NEDEEKAKRFVKTYVHSLVTGDWKLWSEMADPNMILIYGDKTFIGREHFEEFFRRHIEELRFDSFHVDHVEIQGDKAELESRVSVIINGVERELETNMFLHKVDGRWLLTKFEVH” came in with a protease stability score of 2.08.

Regarding “NEDEEMIKTAIELLLRTWKTGDEHSLTELLDPHVRVHINGVDLHGRHAIHWLSRHMRFEEIRVDHFEIVNGRVHLETKVRIHYGDKSDTVESHVISLKVDGKWKTQRVQYH”, the protease stability score was determined as 0.954.

Consider “NEDEENMKKLLEDFLESLLTGDFDKLTRLADPHARIVQGDKELHGRDEIHEFWKRTMEHIRITHSYVREIDIINGRLHTDIHWDLQVGDKRYSHRVELILLKIDGKWVLHEVEFR”, for which the protease stability score came out at 1.27.

“NEDEESAERAVHLLRELIYTGDEDRMLKYADPNVKIVFNGVEMHGMDTFLRVFHRIKNLTIRRIHIDHIHLQGDKIELNVRMDTEFNGRHHDDSIHIRTLKVDGVWINHRTEYV”: the protease stability score was 1.04.

With “NEDEESIRRAVEHWSKLILTGDESLLRQMADPNVRIQVGDKRIIGMDSLVKLMEDLGWEMEIRTKIRHTEIINGKMHTRTQLDIHFRQGDKKVDIHRDTEIVIEKVDGRWHIHSIRIE”, the protease stability score amounted to 0.752.

“NEDEEVERKWLEFIRHALHTGDERILHELLDPHAQLIYGDKHIIGREEMTRQFIELGVDHMEDKRVHHQGDKIHQDGTEHVNGKERKVRFVVAKVNGRWIWERMHVI” showed a protease stability score of 1.03.

“NEDEEWIHKFWETLRKNIETGNEEEIEKLFDPNTRVEIGDKIIHGRRFIEHLKERADHVEEVHFQHKHIEIQGDKVQVHGELDHDIRIGDKRHRLRLDIIIILKKYNGRWHVHSFIIT” showed a protease stability score of 1.2.

In turn, “NEDEEYVRLAHEILVETLRTGDEHITKRLADPHVRIDVGDKELHGWEDWLELLTHEARHLRTEIRVRNFDSQGDFIRVEVIIIIVVNGKRIEREVHYFSLKVDGRWLLTHVEIK” came in with a protease stability score of 0.242.

With “NEDEHRARFIFRILTKAILTGDEDFLHRFADPNVRIHVNGVNLIGMEEWLRHLKELRIHFITSHVREIDKIDGVMIVHGEFVIDGEVNGKRDTWHTEIHLVITKVNGRWILHELHTR”, the protease stability score was 2.58.

“NEDEKILEEAARLLFKALHTGDETTMLRLLDPNVRLHINGRDLIGREEMDRWWQELGLERISVHLDHLETHYIGNKIEIYIRGTVEFNGVRREIDVHNHALKVNGRWELKNVEIRHR” gave a protease stability score of 0.893.

With “NEDEKLAEDAIQEYRHSVKTGDENFLKHLADPDVRMDYNGREYHGREEWEKFLRNILRHLRPKDFRIKHFDYYGDYMHFEGLHVGQINGKETHLHTEIIFLKINGRWHLRSIRIE”, the protease stability score was 0.401.

As to “NEDEREFRIFLELFILAMRTGDETTFKKLLDPDVKFRINGKEYHGWEEVWHVLEEIRIHDIKLTDMERVGDKLHLITRVEGEFDGRRHEIDTRLHVRKIDGRWLLRTVEIS”, the protease stability score came to 2.13.

“NEDERETELFLRLFRRALLTGDWRAIEDLMDPNVMIHVNGREFHGREQYYKIVMNELTHWRLHHTKIDDIRLYDGVLRVQLRLQGEINGREDFLHLHVIIEKIDGKWIFRSVEIR” came in with a protease stability score of 1.91.

Consider “NEDERLIKEFWRLLQEALKTGNWEMIAELIDPHVRIDIGDKQIHGREEFIKLVDHIRFDDVKTELKTVHVFDGRVEVRGHLTVHKTFNGQKIDERTDVNLDIEKINGVWYMTYVRIE”, for which the protease stability score was 2.06.

Regarding “NEDHDVLNDLMTDHVHAVLTGDFRTLIHNIDPHTRVDINGVHFHGREEAVHLFEDLANRVPGVKLDVEEWRTYGDKLRSNVRWHFDGRTIDIHLVFLKINGKWLLESVKIN”, the protease stability score turned out to be 1.9.

In the case of “NEEDEFMEVAVELMERTLKTGDERLLSELVDPNARIEFNGREWHGRKFLETLWRELTKKFPNMKVMFKIEYINSFEGHIEIEGILESNFDGRVESRRVHYNVSKINGRWIIEEIEIQ”, the protease stability score was 1.35.

Take “NEEEDINHHIVELFFHLLHTGDWEELEKLADPHARLEINGRRFHGRENVVTQLWELLHRIDHVEIRDLRVQGDKVHVDTRLRIGDKEKKTEWDIVVVNGKIKRSRVRVH”: the protease stability score worked out at 2.02.

Sequence “NEEEEDMEHATKEHMELWRTGDEKRITELADPNVRVHVGEKEYHGREKLSEHIMRLGFDHVELTHFDVQGEKVISHIRVRFNGRDIEFLLIVLKVDGRWYEEQVNIRVS” yielded a protease stability score of 0.66.

Consider “NEEEEEIKTLSEEILRAWMTGDFDHLRDMMDPNTKLDINGKEVHGREILINLLRKIMEDLGVKHIHIRHKEHQGNWTHLDERQIVGDKRINVHYIWVVVDGRIHSIRIEMR”, for which the protease stability score amounted to 1.16.

“NEEEEESKFANELWEETVKTGDERLNRSLADPNTRFHINGVDLHGWESMDETARRYKNITVRLHDMRTYNGRVHLDFEMRVGEFTTKVIIIARKFDGRWILKSIIVH” returned a protease stability score of 1.2.

For “NEEEEESKWAYEEMIKVVKTGDEERLKELADPHTRVHMLVNGRLHNLHGREFLVLAWRLLGFDHLELKRMHVEVVNGRVHINLHGHVEINGRTHTLHIHIDAEKVDGRWIVRRVEIRSE”, the protease stability score worked out at 1.5.

“NEEEEESRRAFHLLVELLRTGDEESFTKLADPHMRIIVDGREIHGREEMRRFMEEHWERFPNMKVRIEHFRVQGDKVTIHTVVHIGDKEIEVHIHARKVNGRWIMKELIIVTR” had a protease stability score of 0.552.

In turn, “NEEEEHIFELWELFLKASHTGDEDSLKEFADPNTRQIVDGQEIHGREKFTEHLSWRAKELRLESVHIRRLHIIDGRIHVDGLIRGRINGREIEIETEVISIKVNGKWILKEMNFK” displayed a protease stability score of 1.28.

“NEEEELLHRLAKRFIELFLTGDWEVMEKLFDPHVKIDVNGRESHGREQVWHLLMHLLHELRIHHILIRSFDVFDGRAHSSVEVNGEFNGKRDLTEAEVVIVSVDGKMKSVSIKLR” had a protease stability score of 1.23.

“NEEEETARHAIEEFVRVLMTGDWRTLERLLDPNYRIYQGDKTYIGMEHFLELWVHILDRIKNLRLEIHSYEIQGEKVHIHTILNYDGRDIEYVIIQIKINGRWLLHSLHFL” gave a protease stability score of 1.24.

As to “NEEEHELELAYRWYEESILTGDEDELTHLLDPHVRLQYGDKEFHGREIVLHFFHKHWREMGAKYIEVHSISLYGDKIVFDSTLHINGRTHRVHVTSRKVDGRWRIRSMRIN”, the protease stability score was 1.63.

“NEEEHFMKEALEIWLHFFRTGDERDIQREFDPNARFEFENHTSHGRESVRELLTRLFHDLGINHVQFESIRVQGDKVEIHGHFFVDGRRYDFEMNSVKINGRWLNHTIRLR”: the protease stability score was 1.12.

The sequence “NEEEHKLEEEFERLMHLLLTGDEEKLHRLADPNVKVNVNGKDLHGMELFFHVWWEELKRYDYWHITIRHIDSQGNKADSEVELNLVFNGKEIRIDSRMHLEVVNGRIKRIEIRPI” gave a protease stability score of 1.63.

Take “NEEEHTFEIAIRILREMWETGDEKLSQELADPNARLDIGDKHFHGRESLRHRVHEMRIEHTDIHSYHTINGRVHMDWRVDGFINGQRHDTRMHLDVIKIDGRWIIKNVEVK”: the protease stability score turned out to be 0.571.

On to “NEEEKIIKKDIEKEITAWETGDFDTLDHLLDPHARMDINGKDLHGREVLKTHFHEEWNRLGLEKVEIHIQDFRVIDGRVHIDGYMNVNGRHQKVRFIARKVNGRWIIHEVEFR”, for which the protease stability score came to 1.32.

With “NEEEKLSEEWSDHLLHNLITGDEEMLKRFMDPHTWAESEVDGQDEKYHGREQALHMVYRVIHRLGFNHFHIHRHRVIGDKIHVELRIVVGDKEVDAHFETIIINGKVHRIRIHVTKR”, the protease stability score came to 0.323.
